Assay results: patent publication US20230149556A1, “COMBINATION THERAPY” (ADC Therapeutics SA, priority 2017, published 2023)

Tested on: Ramos cells
Experiment: In vitro cytotoxicity MTS assay, chequerboard of ADC and rituximab (Example 4)
Format: cell-based
Conditions: single agent
Protocol: Ramos cells were cultured RPMI 1640 supplemented with 10% Hyclone FBS. The concentration and viability of cells from a sub-confluent (80-90% confluency) T75 flask were measured by trypan blue staining, and counted using the LUNA-II™ Automated Cell Counter. Cells were diluted to 2 x10^5/ml, dispensed (50 µl/well) into 96-well flat-bottom plates. A chequerboard was set up in combining 10-fold dilutions of ADCTx19 or ADCTx22 and 10-fold dilutions of rituximab in RPMI before 50 µl of each dilution was transferred into the 96-well plate containing the cells. This plate was incubated at 37° C. in a CO2-gassed incubator for 4 days. At the end of the incubation period, cell viability was measured by MTS assay. MTS (Promega) was dispensed (20 µl per well) into each well and incubated for 4 hours at 37C in the CO2-gassed incubator. Well absorbance was measured at 490 nm. IC50 was determined from the dose-response data using GraphPad Prism using the non-linear curve fit algorithm: sigmoidal dose-response curve with variable slope.

Rituximab: anti-CD20 agent, antibody, CAS 174722-31-7
cytotoxic effect by itself: no significant cytotoxic effect
